Data as given in patent US20250179160A1 (OMEROS, published 2025).
Substitutions are numbered along the chain they refer to. Numbers in names are those of the source. Each block holds one binder with its values, some of them ahead of it.

Assays:
[1] = molecular target: T1, recombinant human mature Factor D (human, UniProt P00746 26-253); assay: ELISA: antibody titrated 3-fold from 3 ug/ml on plate coated with 1 ug/ml recombinant human mature Factor D; HRP anti-mouse, rat or human secondary; OD450
T1 construct: also called mature CFD; hCFD

[2] = molecular target: T1, recombinant human mature Factor D; assay: capture ELISA: recombinant Factor D captured by plate-bound goat polyclonal AF1824; hybridoma supernatant diluted two-fold; HRP goat anti-mouse IgG Fc; OD450
Method: The specificity of anti-human pro-CFD hybridomas were further analyzed as follows. […] ELISA plates were coated with polyclonal anti-human factor D antibody AF1824 (R&D Systems). Hybridoma supernatants were diluted two-fold in PBS, 0.05% Tween 20 (PBST). […] Hybridoma supernatants and control samples were allowed to bind to captured pro or mature Factor D for one hour at room temperature. After washing three times with PBST, 100 μL/well of HRP-goat anti-mouse IgG Fc gamma secondary antibody (Jackson ImmunoResearch) diluted in PBST was added and incubated for 1 hour at room temperature. After washing three times with PBST, TMB substrate (ThermoFisher), 100 μL/well, was added. After 4 minutes the reaction was stopped with 50 μL/well of 1N H2SO₄, then read at 450 nm on a Biotek™ ELISA plate reader.

[3] = molecular target: T2, recombinant human Pro-Factor D (human, UniProt P00746 20-253); assay: sandwich ELISA: Factor D titrated (ug/ml Df) on plate-bound goat polyclonal AF1824; purified recombinant human IgG4 antibody as detection antibody; OD450
T2 construct: also used for the endogenous pro-Factor D detected in 3MC patient serum; also called pro CFD; hPro-CFD
From the text: An HRP-tagged anti-mouse secondary antibody followed by TMB substrate was used to develop the assay.

[4] = molecular target: T1, recombinant human mature Factor D; assay: BLI (Octet ForteBio), 20 nM human IgG4 antibody on anti-human sensors, antigen 111 nM
Method: Affinities of candidate antibodies to human mature-Factor-D versus human pro-Factor D were determined as follows.
Association and dissociation constants were determined by Octet Fortebio.

B2: 20A1, purified recombinant, human IgG4 (antibody, V domains shown)
VH: EVKLEESGGGLVQPGGSMKLSCIASGFTFSTYWMSWVRQSPEKGLEWVAEIRLKSENYATYYAESVKGKFIISRDDSKSRLYLQMNSLRAEDTGIYYCTNAWFANWGQGTLVTVSA
VL: DIVMSQSPSSLVVSVGEKVTMSCKSSQNLLYSRDQKNYLAWYQQKPGQSPNLLIYWASTRESGVPDRFTGSGSGTDFSLTISSVKAEDLAVYYCLQYYSYPYTFGGGTKLEMKR
notes: Mouse variable regions on human IgG4 (S228P) and human kappa constant regions
binding result [1]: no binding (tested: 3 ug/ml)

B4: 18F5, hybridoma supernatant (antibody, V domains shown)
VH: B2 VH with I23V, S30G, T31N, E56D, Y61H, I71T, A90G, I95L, N105S
VL: B2 VL with V12A, K24M, N28S, R33K, N51K, S78T, S99T, M112I
notes: Mouse hybridoma antibody
binding result [2]: no binding

B5: 1F9, hybridoma supernatant (antibody, V domains shown)
VH: B2 VH with I23V, S30G, T31S, E56D, T60A, Y61H, I71T, A90G, N105S
VL: B2 VL with V12T, K24M, N28S, R33K, N51T, S78T, S99T, M112I
notes: Mouse hybridoma antibody
binding result [2]: no binding

B7: 6G6, purified recombinant, human IgG4 (antibody, V domains shown)
VH: QITLKESGPGILQSSQTLSLTCSFSGISLTTSGMGVSWIRQPSGKGLEWLAHIYWDDEKHYHPSLKSRLTISKDASRNQVFFRILSVDTADTATYYCALRYYGYRSFMDYWGQGTSVTVSS
VL: DVLMTQSPLSLPVSLGDQASIFCRSNQSIVHSNGNTYFEWYLQKPGQSPKLLIYKVSNRFSGVPDRFSGSGSGTDFTLRISRVEAEDLGVYYCFQGSHVPPTFGGGTKLEIKR
notes: as for B2
binding result [3]: no binding
Kd [4]: 14.3 nM

B10: 13A10, hybridoma supernatant (antibody, V domains shown)
VH: DVQLQESGPGLVKPSQSLSLTCTVTGYSITSDYAWNWIRQFPGNKLEWMGYISYIGGIGYNPSLKSRISITRDTSKNQFFLHLNSVTTGDTATYYCARNGAMDFWGQGISVTVSS
VL: DIVLTQSPASLAVSLGQRATISCKASQSVDYDGDSYMNWYQQKPGQPPKLLIYDASNLESGIPARFSGSGSGTDFTLNIHPVEEEDAATYYCQQSNEAPWTFGGGTKLEIKR
notes: Mouse hybridoma antibody
binding result [2]: no binding

Further lines, results first:

binding result [1]: no binding (tested: 3 ug/ml)
B1: 1F9, purified recombinant, human IgG4 (antibody, V domains shown)
VH: B2 VH with I23V, S30G, T31S, E56D, T60A, Y61H, I71T, A90G, N105S
VL: B2 VL with V12T, K24M, N28S, R33K, N51T, S78T, S99T, M112I
notes: as for B2

binding result [2]: no binding
B3: 20A1, hybridoma supernatant (antibody, V domains shown)
VH: B2 VH
VL: B2 VL
notes: Mouse hybridoma antibody

binding result [2]: no binding
B6: 2A4, hybridoma supernatant (antibody, V domains shown)
VH: B2 VH with I23V, E56D, Y61H, A63T, I71T, A90V, N105Y
VL: B2 VL with V12A, V19F, N28S, K45Q, N51K, S78T, A86T, M112I
notes: Mouse hybridoma antibody

binding result [3]: no binding
Kd [4]: 2.3 nM
B8: 49G3, purified recombinant, human IgG4 (antibody, V domains shown)
VH: QVTLKESGPGILQSSQTLSLTCSFSGISLSSSGMGVSWIRQPSGKGLEWLAHIYWDDEKHYNPSLKSRLTISKDASRNQIFLKIISVDTADTATYYCALRYYGYNYVMHYWGQGTSVTVSS
VL: B7 VL with S7T, F22S, N26S, V30L, R79K
notes: as for B2

binding result [3]: no binding
Kd [4]: 9.77 nM
B9: 14A11, purified recombinant, human IgG4 (antibody)
heavy: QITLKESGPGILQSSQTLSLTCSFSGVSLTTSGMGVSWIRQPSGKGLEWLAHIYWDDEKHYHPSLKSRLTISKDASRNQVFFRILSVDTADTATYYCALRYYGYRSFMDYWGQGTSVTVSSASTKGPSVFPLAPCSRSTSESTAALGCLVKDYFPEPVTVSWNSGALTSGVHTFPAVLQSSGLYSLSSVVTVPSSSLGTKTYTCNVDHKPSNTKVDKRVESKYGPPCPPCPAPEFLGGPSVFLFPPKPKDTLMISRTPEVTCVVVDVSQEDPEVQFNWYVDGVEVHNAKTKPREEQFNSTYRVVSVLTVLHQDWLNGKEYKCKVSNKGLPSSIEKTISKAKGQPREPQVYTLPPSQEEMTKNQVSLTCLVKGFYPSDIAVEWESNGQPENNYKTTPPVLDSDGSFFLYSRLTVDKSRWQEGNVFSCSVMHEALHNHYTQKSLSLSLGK
light: DVLMTQSPLSLPVSLGDQASIFCRSNQSIVHSNGNTYFEWYLQKPGQSPKLLIYKVSNRFSGVPDRFSGSGSGTDFTLRISRVEAEDLGIYYCFQGSHVPPTFGGGTKLEIKRTVAAPSVFIFPPSDEQLKSGTASVVCLLNNFYPREAKVQWKVDNALQSGNSQESVTEQDSKDSTYSLSSTLTLSKADYEKHKVYACEVTHQGLSSPVTKSFNRGEC
notes: as for B2

binding result [2]: no binding
B11: 21H1, hybridoma supernatant (antibody, V domains shown)
VH: B10 VH with I55S, G57S, I58T, N61S, F104Y
VL: B10 VL with N57T, S95N, N96Y
notes: Mouse hybridoma antibody
